Source: the supplement of paper PMC9732359
± gives the uncertainty stated by the source.

Test: protein stability index of a GFP-peptide fusion (yeast GPS) (PSI 1-4); higher = more stable; sorted into four equal gates, so the index is relative within each strain
How it was run: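 The protein stability index of a peptide was calculated by multiplying its read frequency in each gate by that gate's number and adding the products. The peptides were tiled 17-residue stretches of yeast proteins, fused downstream of GFP on a Cherry-expressing plasmid and carried in yeast as a pooled library. Mid-log cultures in leucine-free medium were sorted into four equal gates by GFP/Cherry ratio, and each gate's plasmids were PCR-amplified and Illumina-sequenced.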

SFCGFLLYYIPSLELSA [YJR042W/NUP85]
protein stability index (doa10∆): 1.65 ± 0.051
protein stability index (pdr5∆): 1.58 ± 0.065
protein stability index (san1∆): 1.57 ± 0.1
protein stability index (ubr1∆): 1.95 ± 0.059

EAPAGNIDTITDAMTES [MCD1]
protein stability index (doa10∆): 2.8 ± 0.079
protein stability index (pdr5∆): 3.04 ± 0.052
protein stability index (san1∆): 2.96 ± 0.072
protein stability index (ubr1∆): 3.16 ± 0.057

GAHLGRFVIWTEAAFTK [RPL4A]
protein stability index (doa10∆): 2.87 ± 0.21
protein stability index (pdr5∆): 3.04 ± 0.2
protein stability index (ubr1∆): 2.54 ± 0.25

VNQEFIFEAISLSDELN [YJL039C/NUP192]
protein stability index (doa10∆): 2.71 ± 0.071
protein stability index (pdr5∆): 2.65 ± 0.067
protein stability index (san1∆): 2.63 ± 0.051
protein stability index (ubr1∆): 2.75 ± 0.058

VLDHQRAIPFRRFNSSI [RPL17A]
protein stability index (doa10∆): 2.69 ± 0.095
protein stability index (pdr5∆): 2.39 ± 0.14
protein stability index (san1∆): 1.67 ± 0.15
protein stability index (ubr1∆): 1.4 ± 0.13

LSEPLIKIGIRVMKSLS [YCG1]
protein stability index (doa10∆): 1.59 ± 0.066
protein stability index (pdr5∆): 1.98 ± 0.052
protein stability index (san1∆): 1.74 ± 0.066
protein stability index (ubr1∆): 1.73 ± 0.06

LFQLLNALTVGDFDKFD [RPN9]
protein stability index (doa10∆): 3.1 ± 0.29
protein stability index (pdr5∆): 2.36 ± 0.26
protein stability index (ubr1∆): 1.8 ± 0.28

EDLLHYIEEKHPTIYES [POP4]
protein stability index (doa10∆): 3.47 ± 0.078
protein stability index (pdr5∆): 3.4 ± 0.093
protein stability index (san1∆): 3.37 ± 0.077
protein stability index (ubr1∆): 3.27 ± 0.084

TSGEAAALGMGLCMLGT [RPN2]
protein stability index (doa10∆): 2.92 ± 0.19
protein stability index (pdr5∆): 2.95 ± 0.21
protein stability index (san1∆): 3.08 ± 0.12
protein stability index (ubr1∆): 2.68 ± 0.1

INYAFSMDEEFKNMDCI [SIR3]
protein stability index (doa10∆): 3.21 ± 0.051
protein stability index (pdr5∆): 3.22 ± 0.042
protein stability index (san1∆): 3.26 ± 0.033
protein stability index (ubr1∆): 3.321 ± 0.031

SKALNSILESSMFLRID [RGR1]
protein stability index (doa10∆): 2.42 ± 0.16
protein stability index (pdr5∆): 2.67 ± 0.11
protein stability index (san1∆): 2.08 ± 0.11
protein stability index (ubr1∆): 2.83 ± 0.082

VSNILSAFKFIHTQLSE [YJL039C/NUP192]
protein stability index (doa10∆): 2.19 ± 0.061
protein stability index (pdr5∆): 1.92 ± 0.048
protein stability index (san1∆): 1.47 ± 0.094
protein stability index (ubr1∆): 1.58 ± 0.037

LQRDLIQTKEQVSINSN [YIL149C/MLP2]
protein stability index (doa10∆): 2.78 ± 0.072
protein stability index (pdr5∆): 3.12 ± 0.089
protein stability index (san1∆): 3.11 ± 0.065
protein stability index (ubr1∆): 3.27 ± 0.059

VANYSAMANAPGNNIPY [GAL11]
protein stability index (doa10∆): 2.88 ± 0.16
protein stability index (pdr5∆): 3.25 ± 0.18
protein stability index (san1∆): 2.7 ± 0.17
protein stability index (ubr1∆): 2.76 ± 0.16

CWLSNIDIQTQDLNQRF [RRI1]
protein stability index (doa10∆): 2.72 ± 0.11
protein stability index (pdr5∆): 3.23 ± 0.11
protein stability index (san1∆): 3.24 ± 0.072
protein stability index (ubr1∆): 3.17 ± 0.079

DVVAKLEAKRKVSSAEY [RPL16A]
protein stability index (doa10∆): 1.69 ± 0.11
protein stability index (pdr5∆): 1.7 ± 0.071

GVQTAYIDYSSKRYIPS [RRP40]
protein stability index (doa10∆): 2.43 ± 0.067
protein stability index (pdr5∆): 2.61 ± 0.057
protein stability index (san1∆): 2.48 ± 0.1
protein stability index (ubr1∆): 2.33 ± 0.068

CVAAWGVCNHAFHLHCI [HRT1]
protein stability index (doa10∆): 1.69 ± 0.05
protein stability index (pdr5∆): 1.75 ± 0.065
protein stability index (san1∆): 1.52 ± 0.076
protein stability index (ubr1∆): 2.28 ± 0.045

RLKEINGWEKYLHNVEL [ISW2]
protein stability index (doa10∆): 2.97 ± 0.12
protein stability index (ubr1∆): 2.94 ± 0.057

TEYCVGDYVAYQLNGVA [YMR129W/POM152]
protein stability index (doa10∆): 2.83 ± 0.14
protein stability index (pdr5∆): 3.1 ± 0.13
protein stability index (san1∆): 2.1 ± 0.23
protein stability index (ubr1∆): 2.52 ± 0.066

YKRSIVRNYKPLINRLK [SWI1]
protein stability index (doa10∆): 2.4 ± 0.13
protein stability index (pdr5∆): 2.7 ± 0.1
protein stability index (san1∆): 1.65 ± 0.21
protein stability index (ubr1∆): 1.98 ± 0.15

GNPTNISSPIVANSPNK [YDL088C/ASM4]
protein stability index (doa10∆): 1.3 ± 0.13
protein stability index (pdr5∆): 2.06 ± 0.14
protein stability index (ubr1∆): 1.82 ± 0.1

ATSDNKTTNTTPSFSFG [YJL041W/NSP1]
protein stability index (doa10∆): 3.13 ± 0.063
protein stability index (pdr5∆): 3.05 ± 0.076
protein stability index (san1∆): 3.09 ± 0.032
protein stability index (ubr1∆): 3.1 ± 0.042

SDIKQGYTQHGGLRPFG [PRE9]
protein stability index (doa10∆): 3.5 ± 0.13
protein stability index (pdr5∆): 2.53 ± 0.23
protein stability index (san1∆): 3.58 ± 0.15

GGSSDTADKIRIHAKNF [GAL11]
protein stability index (doa10∆): 1.67 ± 0.066
protein stability index (pdr5∆): 1.86 ± 0.061
protein stability index (san1∆): 1.42 ± 0.072
protein stability index (ubr1∆): 1.68 ± 0.054

GKLAKPRQLHNTHWGLV [RPB2]
protein stability index (doa10∆): 2.85 ± 0.082
protein stability index (pdr5∆): 2.84 ± 0.071
protein stability index (san1∆): 2.61 ± 0.068
protein stability index (ubr1∆): 2.94 ± 0.092

ETQVEVEKNEIGKMYDE [NNF1]
protein stability index (doa10∆): 3.05 ± 0.19
protein stability index (pdr5∆): 3.21 ± 0.11
protein stability index (san1∆): 2.98 ± 0.17
protein stability index (ubr1∆): 3.37 ± 0.13

GTGRSGQGAFGNMCRGG [RPL4A]
protein stability index (doa10∆): 3.49 ± 0.14
protein stability index (pdr5∆): 3.37 ± 0.078
protein stability index (san1∆): 3.33 ± 0.11
protein stability index (ubr1∆): 3.24 ± 0.063

YGIPLEFYNEMHRPVHF [PRP8]
protein stability index (doa10∆): 1.85 ± 0.074
protein stability index (pdr5∆): 2.04 ± 0.1
protein stability index (san1∆): 1.98 ± 0.14
protein stability index (ubr1∆): 2.64 ± 0.15

TRGPFHFRAPSRILYKA [RPL16B]
protein stability index (doa10∆): 2.3 ± 0.064
protein stability index (pdr5∆): 2.43 ± 0.045
protein stability index (san1∆): 2.08 ± 0.068
protein stability index (ubr1∆): 2.27 ± 0.042

TILYLNVFHGLCAGANN [IRR1]
protein stability index (doa10∆): 1.3 ± 0.071
protein stability index (pdr5∆): 1.64 ± 0.083
protein stability index (san1∆): 1.39 ± 0.087
protein stability index (ubr1∆): 1.34 ± 0.076

PGDIVRAQVLSLGDGTN [CSL4]
protein stability index (doa10∆): 3.62 ± 0.24
protein stability index (pdr5∆): 3.26 ± 0.12
protein stability index (san1∆): 3.14 ± 0.12
protein stability index (ubr1∆): 3.29 ± 0.12

GIDLAYNMYDAYGNWFN [PRP8]
protein stability index (doa10∆): 2.94 ± 0.049
protein stability index (pdr5∆): 3.08 ± 0.04
protein stability index (san1∆): 3.05 ± 0.058
protein stability index (ubr1∆): 3 ± 0.045

LNNTHVISSGPLAAGNF [RPC53]
protein stability index (doa10∆): 2.74 ± 0.086
protein stability index (pdr5∆): 3 ± 0.1
protein stability index (san1∆): 2.69 ± 0.074
protein stability index (ubr1∆): 2.49 ± 0.049

ELPLVITMPATNGKPDM [ARP7]
protein stability index (doa10∆): 2.9 ± 0.088
protein stability index (pdr5∆): 3.04 ± 0.074
protein stability index (san1∆): 2.9 ± 0.065
protein stability index (ubr1∆): 2.99 ± 0.059

PQMFLNQQAQARQQVAQ [GAL11]
protein stability index (doa10∆): 2.66 ± 0.15
protein stability index (pdr5∆): 2.46 ± 0.13
protein stability index (san1∆): 1.9 ± 0.27
protein stability index (ubr1∆): 1.7 ± 0.091

SGWTPFHIACSVGNLEV [NAS6]
protein stability index (doa10∆): 1.8 ± 0.095
protein stability index (pdr5∆): 1.89 ± 0.074
protein stability index (san1∆): 1.68 ± 0.1
protein stability index (ubr1∆): 1.94 ± 0.11

AMIDAGALEEITKDHKV [FAS2]
protein stability index (pdr5∆): 2.99 ± 0.14
protein stability index (ubr1∆): 2.19 ± 0.2

KRKSAQEPELSLDQGDA [SMC4]
protein stability index (doa10∆): 3.23 ± 0.1
protein stability index (pdr5∆): 3.19 ± 0.1
protein stability index (san1∆): 3.09 ± 0.17
protein stability index (ubr1∆): 3.39 ± 0.099

KIKDVQQQIESNEEQRN [SMC3]
protein stability index (doa10∆): 3.22 ± 0.091
protein stability index (pdr5∆): 3.17 ± 0.082
protein stability index (san1∆): 3.18 ± 0.076
protein stability index (ubr1∆): 2.85 ± 0.11

NLLKFITSNHKSSVPGS [RPN3]
protein stability index (doa10∆): 2.55 ± 0.11
protein stability index (pdr5∆): 2.77 ± 0.1
protein stability index (san1∆): 2.07 ± 0.067
protein stability index (ubr1∆): 2.41 ± 0.087

ERDSYKLLASTEENKAN [YIL149C/MLP2]
protein stability index (doa10∆): 2.76 ± 0.054
protein stability index (pdr5∆): 2.77 ± 0.047
protein stability index (san1∆): 2.84 ± 0.046
protein stability index (ubr1∆): 3.06 ± 0.034

ESFTEELSNELSRLSTA [MED1]
protein stability index (doa10∆): 3.25 ± 0.066
protein stability index (pdr5∆): 3.12 ± 0.066
protein stability index (san1∆): 3.05 ± 0.053
protein stability index (ubr1∆): 3.21 ± 0.034

IPPTFDKGAVGPNNFIW [MED4]
protein stability index (doa10∆): 3.22 ± 0.091
protein stability index (pdr5∆): 3.01 ± 0.084
protein stability index (san1∆): 2.77 ± 0.082
protein stability index (ubr1∆): 3.14 ± 0.11

DLKFEPQGRQSTTFADC [RPC40]
protein stability index (doa10∆): 3.37 ± 0.19
protein stability index (pdr5∆): 3.3 ± 0.29
protein stability index (ubr1∆): 3.15 ± 0.075

VECAQHCIDYLRKNKLG [SMC4]
protein stability index (doa10∆): 1.44 ± 0.07
protein stability index (pdr5∆): 1.19 ± 0.068
protein stability index (san1∆): 1.62 ± 0.1
protein stability index (ubr1∆): 1.36 ± 0.058

NTLLVTGPFKVNGVPLR [RPL6B]
protein stability index (doa10∆): 2.74 ± 0.12
protein stability index (pdr5∆): 2.66 ± 0.082
protein stability index (san1∆): 2.63 ± 0.081
protein stability index (ubr1∆): 2.74 ± 0.045

VESVCQKLDILVAKLKK [SMC4]
protein stability index (doa10∆): 1.9 ± 0.093
protein stability index (pdr5∆): 2.19 ± 0.051
protein stability index (san1∆): 2.24 ± 0.087
protein stability index (ubr1∆): 2.12 ± 0.048

KEYISRLWHTLKYYQDL [SNF5]
protein stability index (doa10∆): 1.47 ± 0.068
protein stability index (pdr5∆): 1.55 ± 0.06
protein stability index (san1∆): 1.42 ± 0.1
protein stability index (ubr1∆): 1.58 ± 0.054

IVDKYIGESARIIREMF [RPT4]
protein stability index (doa10∆): 2.5 ± 0.14
protein stability index (pdr5∆): 2.6 ± 0.088
protein stability index (san1∆): 2.48 ± 0.11
protein stability index (ubr1∆): 2.44 ± 0.079

CTEAGLLALRERRMQVT [RPT2]
protein stability index (doa10∆): 2.17 ± 0.092
protein stability index (pdr5∆): 2.9 ± 0.15
protein stability index (san1∆): 2.33 ± 0.14
protein stability index (ubr1∆): 2.7 ± 0.11

AFNFSFNTSRNVEPTEN [YAR002W/NUP60]
protein stability index (doa10∆): 3.3 ± 0.052
protein stability index (pdr5∆): 3.3 ± 0.079
protein stability index (san1∆): 3.41 ± 0.064
protein stability index (ubr1∆): 3.04 ± 0.051

CRSCPYEFPIEGIEIYD [RPC11]
protein stability index (doa10∆): 1.73 ± 0.078
protein stability index (pdr5∆): 2.32 ± 0.11
protein stability index (san1∆): 1.85 ± 0.11
protein stability index (ubr1∆): 2.08 ± 0.093
